From patent US20030229005A1

Tests used:
Assay in all cases: cell-based or functional assay
stromelysin 1 = stromelysin 1 (UniProt P08254)
[1] = biological target: human Collagenase-3 (human) (UniProt P45452)
[2] = biological target: human Gelatinase-A (human) (UniProt P08253)
Chain of human Gelatinase-A (human) (P08253 110-660 limits assumed): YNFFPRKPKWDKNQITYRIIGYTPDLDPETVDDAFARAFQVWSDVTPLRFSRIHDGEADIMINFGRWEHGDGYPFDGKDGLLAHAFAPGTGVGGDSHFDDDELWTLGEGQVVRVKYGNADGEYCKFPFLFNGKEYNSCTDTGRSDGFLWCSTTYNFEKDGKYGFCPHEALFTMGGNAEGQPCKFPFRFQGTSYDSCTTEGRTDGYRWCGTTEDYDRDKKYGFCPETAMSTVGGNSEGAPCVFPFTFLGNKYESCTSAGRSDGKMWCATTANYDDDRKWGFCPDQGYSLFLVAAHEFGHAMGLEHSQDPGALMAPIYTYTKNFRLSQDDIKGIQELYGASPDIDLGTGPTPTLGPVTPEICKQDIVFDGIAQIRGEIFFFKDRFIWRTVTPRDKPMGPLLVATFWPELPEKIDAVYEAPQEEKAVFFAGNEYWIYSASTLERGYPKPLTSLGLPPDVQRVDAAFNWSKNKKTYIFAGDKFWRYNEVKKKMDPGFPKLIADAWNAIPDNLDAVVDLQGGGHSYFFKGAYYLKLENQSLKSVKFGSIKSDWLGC

Chain of stromelysin 1 (P08254 100-477 limits assumed): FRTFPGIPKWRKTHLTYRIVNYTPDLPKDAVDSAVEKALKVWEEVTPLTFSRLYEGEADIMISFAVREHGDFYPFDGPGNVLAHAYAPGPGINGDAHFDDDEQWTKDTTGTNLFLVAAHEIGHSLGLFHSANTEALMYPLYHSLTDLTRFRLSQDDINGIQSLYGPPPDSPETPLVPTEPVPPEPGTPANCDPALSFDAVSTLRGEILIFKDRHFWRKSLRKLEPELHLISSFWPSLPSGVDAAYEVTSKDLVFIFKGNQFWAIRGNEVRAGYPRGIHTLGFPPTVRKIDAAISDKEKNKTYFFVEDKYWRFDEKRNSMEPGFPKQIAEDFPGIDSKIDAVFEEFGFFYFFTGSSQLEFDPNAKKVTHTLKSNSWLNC

Average Percent Inhibition from 1.1 to 6.6 Hours, Type II Collagen 0.18 ug/ml (stromelysin 1): 15% | Average Percent Inhibition from 1.1 to 6.6 Hours, Type II Collagen 0.54 ug/ml (stromelysin 1): 13% | Average Percent Inhibition from 1.1 to 6.6 Hours, Type II Collagen 1.63 ug/ml (stromelysin 1): 19% | Average Percent Inhibition from 1.1 to 6.6 Hours, Type II Collagen 4.89 ug/ml (stromelysin 1): 12% | Average Percent Inhibition from 1.1 to 6.6 Hours, Type II Collagen 14.67 ug/ml (stromelysin 1): 18% | Average Percent Inhibition from 1.1 to 6.6 Hours, Type II Collagen 44.00 ug/ml (stromelysin 1): 19% | Average Percent Inhibition, 0.10-1.10 h, TypeIICOL 1.6 ug/ul (stromelysin 1): -10% | Average Percent Inhibition, 0.10-1.10 h, TypeIICOL 4.9 ug/ul (stromelysin 1): 50% | Average Percent Inhibition, 0.10-1.10 h, TypeIICOL 15 ug/ul (stromelysin 1): 57% | Average Percent Inhibition, 0.10-1.10 h, TypeIICOL 44 ug/ul (stromelysin 1): 62% | Average Percent Inhibition, 0.10-1.10 h, TypeIICOL .18 ug/ul (stromelysin 1): 22% | Average Percent Inhibition, 0.10-1.10 h, TypeIICOL .55 ug/ul (stromelysin 1): 43% | Average Percent Inhibition, 1.10-2.10 h, TypeIICOL 1.6 ug/ul (stromelysin 1): 24% | Average Percent Inhibition, 1.10-2.10 h, TypeIICOL 4.9 ug/ul (stromelysin 1): 23% | Average Percent Inhibition, 1.10-2.10 h, TypeIICOL 15 ug/ul (stromelysin 1): 28% | Average Percent Inhibition, 1.10-2.10 h, TypeIICOL 44 ug/ul (stromelysin 1): 32% | Average Percent Inhibition, 1.10-2.10 h, TypeIICOL .18 ug/ul (stromelysin 1): 22% | Average Percent Inhibition, 1.10-2.10 h, TypeIICOL .55 ug/ul (stromelysin 1): 26% | Average Percent Inhibition, 2.10-3.10 h, TypeIICOL 1.6 ug/ul (stromelysin 1): 22% | Average Percent Inhibition, 2.10-3.10 h, TypeIICOL 4.9 ug/ul (stromelysin 1): 11% | Average Percent Inhibition, 2.10-3.10 h, TypeIICOL 15 ug/ul (stromelysin 1): 18% | Average Percent Inhibition, 2.10-3.10 h, TypeIICOL 44 ug/ul (stromelysin 1): 18% | Average Percent Inhibition, 2.10-3.10 h, TypeIICOL .18 ug/ul (stromelysin 1): 15% | Average Percent Inhibition, 2.10-3.10 h, TypeIICOL .55 ug/ul (stromelysin 1): 14% | Average Percent Inhibition, 3.10-4.10 h, TypeIICOL 1.6 ug/ul (stromelysin 1): 18% | Average Percent Inhibition, 3.10-4.10 h, TypeIICOL 4.9 ug/ul (stromelysin 1): 8% | Average Percent Inhibition, 3.10-4.10 h, TypeIICOL 15 ug/ul (stromelysin 1): 14% | Average Percent Inhibition, 3.10-4.10 h, TypeIICOL 44 ug/ul (stromelysin 1): 14% | Average Percent Inhibition, 3.10-4.10 h, TypeIICOL .18 ug/ul (stromelysin 1): 12% | Average Percent Inhibition, 3.10-4.10 h, TypeIICOL .55 ug/ul (stromelysin 1): 10% | Average Percent Inhibition, 4.10-5.10 h, TypeIICOL 1.6 ug/ul (stromelysin 1): 17% | Average Percent Inhibition, 4.10-5.10 h, TypeIICOL 4.9 ug/ul (stromelysin 1): 8% | Average Percent Inhibition, 4.10-5.10 h, TypeIICOL 15 ug/ul (stromelysin 1): 13% | Average Percent Inhibition, 4.10-5.10 h, TypeIICOL 44 ug/ul (stromelysin 1): 14% | Average Percent Inhibition, 4.10-5.10 h, TypeIICOL .18 ug/ul (stromelysin 1): 12% | Average Percent Inhibition, 4.10-5.10 h, TypeIICOL .55 ug/ul (stromelysin 1): 8% | Average Percent Inhibition, 5.10-6.10 h, TypeIICOL 1.6 ug/ul (stromelysin 1): 16% | Average Percent Inhibition, 5.10-6.10 h, TypeIICOL 4.9 ug/ul (stromelysin 1): 8% | Average Percent Inhibition, 5.10-6.10 h, TypeIICOL 15 ug/ul (stromelysin 1): 14% | Average Percent Inhibition, 5.10-6.10 h, TypeIICOL 44 ug/ul (stromelysin 1): 14% | Average Percent Inhibition, 5.10-6.10 h, TypeIICOL .18 ug/ul (stromelysin 1): 12% | Average Percent Inhibition, 5.10-6.10 h, TypeIICOL .55 ug/ul (stromelysin 1): 8% | Average Percent Inhibition from 1.1 to 6.6 Hours, Type II Collagen 0.18 ug/ml [1]: -8% | Average Percent Inhibition from 1.1 to 6.6 Hours, Type II Collagen 0.54 ug/ml [1]: -11% | Average Percent Inhibition from 1.1 to 6.6 Hours, Type II Collagen 1.63 ug/ml [1]: -11% | Average Percent Inhibition from 1.1 to 6.6 Hours, Type II Collagen 4.89 ug/ml [1]: -28% | Average Percent Inhibition from 1.1 to 6.6 Hours, Type II Collagen 14.67 ug/ml [1]: -44% | Average Percent Inhibition from 1.1 to 6.6 Hours, Type II Collagen 44.00 ug/ml [1]: -53% | Average Percent Inhibition, 0.10-1.10 h, TypeIICOL 1.6 ug/ul [1]: 16% | Average Percent Inhibition, 0.10-1.10 h, TypeIICOL 4.9 ug/ul [1]: 8% | Average Percent Inhibition, 0.10-1.10 h, TypeIICOL 15 ug/ul [1]: 6% | Average Percent Inhibition, 0.10-1.10 h, TypeIICOL 44 ug/ul [1]: 2% | Average Percent Inhibition, 0.10-1.10 h, TypeIICOL .18 ug/ul [1]: 6% | Average Percent Inhibition, 0.10-1.10 h, TypeIICOL .55 ug/ul [1]: 14% | Average Percent Inhibition, 1.10-2.10 h, TypeIICOL 1.6 ug/ul [1]: -4% | Average Percent Inhibition, 1.10-2.10 h, TypeIICOL 4.9 ug/ul [1]: -31% | Average Percent Inhibition, 1.10-2.10 h, TypeIICOL 15 ug/ul [1]: -48% | Average Percent Inhibition, 1.10-2.10 h, TypeIICOL 44 ug/ul [1]: -55% | Average Percent Inhibition, 1.10-2.10 h, TypeIICOL .18 ug/ul [1]: -9% | Average Percent Inhibition, 1.10-2.10 h, TypeIICOL .55 ug/ul [1]: -11% | Average Percent Inhibition, 2.10-3.10 h, TypeIICOL 1.6 ug/ul [1]: -15% | Average Percent Inhibition, 2.10-3.10 h, TypeIICOL 4.9 ug/ul [1]: -38% | Average Percent Inhibition, 2.10-3.10 h, TypeIICOL 15 ug/ul [1]: -59% | Average Percent Inhibition, 2.10-3.10 h, TypeIICOL 44 ug/ul [1]: -71% | Average Percent Inhibition, 2.10-3.10 h, TypeIICOL .18 ug/ul [1]: -10% | Average Percent Inhibition, 2.10-3.10 h, TypeIICOL .55 ug/ul [1]: -15% | Average Percent Inhibition, 3.10-4.10 h, TypeIICOL 1.6 ug/ul [1]: -13% | Average Percent Inhibition, 3.10-4.10 h, TypeIICOL 4.9 ug/ul [1]: -31% | Average Percent Inhibition, 3.10-4.10 h, TypeIICOL 15 ug/ul [1]: -50% | Average Percent Inhibition, 3.10-4.10 h, TypeIICOL 44 ug/ul [1]: -60% | Average Percent Inhibition, 3.10-4.10 h, TypeIICOL .18 ug/ul [1]: -8% | Average Percent Inhibition, 3.10-4.10 h, TypeIICOL .55 ug/ul [1]: -12% | Average Percent Inhibition, 4.10-5.10 h, TypeIICOL 1.6 ug/ul [1]: -12% | Average Percent Inhibition, 4.10-5.10 h, TypeIICOL 4.9 ug/ul [1]: -25% | Average Percent Inhibition, 4.10-5.10 h, TypeIICOL 15 ug/ul [1]: -41% | Average Percent Inhibition, 4.10-5.10 h, TypeIICOL 44 ug/ul [1]: -49% | Average Percent Inhibition, 4.10-5.10 h, TypeIICOL .18 ug/ul [1]: -7% | Average Percent Inhibition, 4.10-5.10 h, TypeIICOL .55 ug/ul [1]: -10% | Average Percent Inhibition, 5.10-6.10 h, TypeIICOL 1.6 ug/ul [1]: -11% | Average Percent Inhibition, 5.10-6.10 h, TypeIICOL 4.9 ug/ul [1]: -21% | Average Percent Inhibition, 5.10-6.10 h, TypeIICOL 15 ug/ul [1]: -34% | Average Percent Inhibition, 5.10-6.10 h, TypeIICOL 44 ug/ul [1]: -41% | Average Percent Inhibition, 5.10-6.10 h, TypeIICOL .18 ug/ul [1]: -6% | Average Percent Inhibition, 5.10-6.10 h, TypeIICOL .55 ug/ul [1]: -10% | Average Percent Inhibition from 1.1 to 6.6 Hours, Type II Collagen 0.18 ug/ml [2]: 2% | Average Percent Inhibition from 1.1 to 6.6 Hours, Type II Collagen 0.54 ug/ml [2]: 6% | Average Percent Inhibition from 1.1 to 6.6 Hours, Type II Collagen 1.63 ug/ml [2]: -52% | Average Percent Inhibition from 1.1 to 6.6 Hours, Type II Collagen 4.89 ug/ml [2]: 32% | Average Percent Inhibition from 1.1 to 6.6 Hours, Type II Collagen 14.67 ug/ml [2]: 56% | Average Percent Inhibition from 1.1 to 6.6 Hours, Type II Collagen 44.00 ug/ml [2]: 83% | Average Percent Inhibition, 0.10-1.10 h, TypeIICOL 1.6 ug/ul [2]: -27% | Average Percent Inhibition, 0.10-1.10 h, TypeIICOL 4.9 ug/ul [2]: 37% | Average Percent Inhibition, 0.10-1.10 h, TypeIICOL 15 ug/ul [2]: 56% | Average Percent Inhibition, 0.10-1.10 h, TypeIICOL 44 ug/ul [2]: 58% | Average Percent Inhibition, 0.10-1.10 h, TypeIICOL .18 ug/ul [2]: 3% | Average Percent Inhibition, 0.10-1.10 h, TypeIICOL .55 ug/ul [2]: 2% | Average Percent Inhibition, 1.10-2.10 h, TypeIICOL 1.6 ug/ul [2]: 4% | Average Percent Inhibition, 1.10-2.10 h, TypeIICOL 4.9 ug/ul [2]: 43% | Average Percent Inhibition, 1.10-2.10 h, TypeIICOL 15 ug/ul [2]: 64% | Average Percent Inhibition, 1.10-2.10 h, TypeIICOL 44 ug/ul [2]: 78% | Average Percent Inhibition, 1.10-2.10 h, TypeIICOL .18 ug/ul [2]: 9% | Average Percent Inhibition, 1.10-2.10 h, TypeIICOL .55 ug/ul [2]: 11% | Average Percent Inhibition, 2.10-3.10 h, TypeIICOL 1.6 ug/ul [2]: -11% | Average Percent Inhibition, 2.10-3.10 h, TypeIICOL 4.9 ug/ul [2]: 46% | Average Percent Inhibition, 2.10-3.10 h, TypeIICOL 15 ug/ul [2]: 70%
Substance: bovine type II collagen (from UniProt P02459 182-1241)
